In the supplement of paper PMC7877785:
± gives the uncertainty stated by the source.

Assay: self-splicing fitness, log relative to wild type (ln ratio); higher = more splicing; Tetrahymena group I intron in knt gene, E. coli kanamycin selection, DiMSum; sequences stand for … in CUCUCU…GGAGGGAAAAGUUAUCAGGCAUGCACCUGGUAGCUAGUCUUUAAACCAAUAGAUUGCAUCGGUUUAAAAGGCAAGACCGUCAAAUUGCGGGAAAGGGGUCAACAGCCGUUCAGUACCAAGUCUCAGGGGAAACUUUGAGAUGGCCUUGCAAAGGGUAUGGUAAUAAGCUGACGGACAUGGUCCUAACCACGCAGCCAAGUCCUAAGUCAACAGAUCUUCUGUUGAUAUGGAUGCAGUUCACAGACUAAAUGUCGGUCGGGGAAGAUGUAUUCUUCUCAUAAGAUAUAGUCGGACCUCUCCUUAAUGGGAGCUAGCGGAUGAAGUGAUGCAACACUGGAGCCGCUGGGAACUAAUUUGUAUGCGAAAGUAUAUUGAUUAGUUUUGGAGUACUCGUGGUCG
Summary of the method: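 Library with all eight P1ex-region intron nucleotides randomised, intron inside the knt kanamycin-resistance gene on pET-22b(+), in E. coli BL21(DE3). Cells grew overnight at 37°C or 30°C on LB agar with or without 25 μg/mL kanamycin (plus 100 μg/mL carbenicillin, 50 μM IPTG, 0.2% rhamnose), in six replicate transformations. Pooled colonies were amplicon-sequenced on Illumina HiSeq 2500. DiMSum fitness is the error-weighted combination of wild-type-normalised replicate fold changes, kanamycin versus none.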

Sequence	self-splicing fitness (ln) (30 °C)	self-splicing fitness (ln) (37 °C)
AUCGAGCAAUAUUACGAGAG	-3.84 ± 0.39	-1.14 ± 0.19
UUAAAGCAAUAUUACGCCGA	-0.193 ± 0.12	0.491 ± 0.15
GUCUAGCAAUAUUACGUGCG	-1.76 ± 0.11	-1.27 ± 0.12
CUCGAGCAAUAUUACGCAAC	-3.47 ± 0.49	-1.71 ± 0.31
UACGAGCAAUAUUACGGUCG	-0.828 ± 0.076	-0.0425 ± 0.099
GCUGAGCAAUAUUACGCACA	-3.2 ± 0.39	-3.05 ± 0.4
CUCAAGCAAUAUUACGUAGG	-0.955 ± 0.068	-0.324 ± 0.11
GAUAAGCAAUAUUACGGGCU	-1.95 ± 0.11	-1.91 ± 0.16
AUGCAGCAAUAUUACGGGAU	-2.25 ± 0.088	-1.06 ± 0.097
AUAGAGCAAUAUUACGACGU	0.0144 ± 0.077	0.556 ± 0.099
CUAAAGCAAUAUUACGAUAA	-2.17 ± 0.14	-0.422 ± 0.12
AGCUAGCAAUAUUACGGUUU	-2.66 ± 0.14	-1.96 ± 0.14
GGUGAGCAAUAUUACGAAAU	-2.21 ± 0.31	-2.78 ± 0.38
CAUGAGCAAUAUUACGAUGG	-1.36 ± 0.1	-0.83 ± 0.13
GUCGAGCAAUAUUACGUUGA	-2.98 ± 0.16	-3.79 ± 0.34
GUAUAGCAAUAUUACGCAUA	-2.3 ± 0.28	-0.525 ± 0.27
UGAAAGCAAUAUUACGGGCA	-0.0393 ± 0.081	0.386 ± 0.092
GGCGAGCAAUAUUACGGGAA	-2.55 ± 0.3	-1.74 ± 0.43
AAUGAGCAAUAUUACGCGAU	-3.63 ± 0.41	-0.995 ± 0.22

Sequence	self-splicing fitness (ln) (30 °C)	self-splicing fitness (ln) (37 °C)
UCCGAGCAAUAUUACGAAAA	–	-1.07 ± 0.37
AACCAGCAAUAUUACGACGG	-2.1 ± 0.089	-0.974 ± 0.11
AUUGAGCAAUAUUACGGGUA	–	-2.06 ± 0.32
CAAAAGCAAUAUUACGGUUA	-1.72 ± 0.1	-0.514 ± 0.083
GGCAAGCAAUAUUACGCGUC	-3.66 ± 0.34	-2.74 ± 0.36
UUGUAGCAAUAUUACGGUAU	-0.659 ± 0.35	–
AAAAAGCAAUAUUACGGGCA	-0.543 ± 0.081	-0.103 ± 0.088
CGUUAGCAAUAUUACGGACC	-0.382 ± 0.14	0.675 ± 0.16
ACUCAGCAAUAUUACGCACA	-0.835 ± 0.083	-0.539 ± 0.1
UGUCAGCAAUAUUACGACCC	-0.106 ± 0.22	0.358 ± 0.26
CGACAGCAAUAUUACGCAUU	-2.93 ± 0.15	-2.03 ± 0.16
CCCCAGCAAUAUUACGCGUG	-4.14 ± 0.18	-2.76 ± 0.15
ACUAAGCAAUAUUACGUGAA	-1.24 ± 0.074	-0.939 ± 0.1
UGGAAGCAAUAUUACGGGUG	-1.07 ± 0.063	-0.839 ± 0.083
CGGCAGCAAUAUUACGUCUA	-0.607 ± 0.071	0.443 ± 0.084
UGAAAGCAAUAUUACGAAGC	–	-2.07 ± 0.28
GUCCAGCAAUAUUACGUAGC	-0.399 ± 0.062	-0.149 ± 0.075
GAACAGCAAUAUUACGUUAC	-2.53 ± 0.14	-1.32 ± 0.16
GUAUAGCAAUAUUACGAUCC	-0.716 ± 0.18	1.03 ± 0.22
